Series [1] deals with T1, LARP6 (70-295) (UniProt Q9BRS8 70-295).
T1 sequence: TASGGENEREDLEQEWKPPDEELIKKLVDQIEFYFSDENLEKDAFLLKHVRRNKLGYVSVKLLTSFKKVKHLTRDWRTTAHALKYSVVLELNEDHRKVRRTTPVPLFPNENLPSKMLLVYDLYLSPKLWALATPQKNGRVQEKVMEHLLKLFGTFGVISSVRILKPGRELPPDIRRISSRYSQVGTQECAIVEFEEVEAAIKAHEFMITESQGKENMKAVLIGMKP
In words: TR-FRET competition.

Series [2] concerns the target T2, LARP6 (ITC) (UniProt Q9BRS8 70-295).
T2 sequence: T1 sequence
As to the kind of experiment: ITC.

Series [3] has as its target T1, LARP6 (70-295). As to the kind of experiment: TR-FRET competition. This is another data set of the same source.
Series [4] concerns the target T2, LARP6 (ITC). In words: ITC. This is another data set of the same source.
Series [5] has as its target T2, LARP6 (ITC). In words: ITC. This is another data set of the same source.
The target of series [6] is T1, LARP6 (70-295). In words: TR-FRET competition. This is another data set of the same source.

Like-named read-outs stand apart in the source and are kept apart here.

As to CCACAAAGAGUCUACAUGUCUAGGGUCUAGACAUGUUCAGCUUUGUGG (structured_RNA) [A1 (COL1A1 5'SL)], the IC50 in the series with LARP6 (70-295) [1] is 6.84 nM. Besides, in the series with LARP6 (ITC) [2], the Kd was > 400 nM.

B1: COL5A1-CDS (ssRNA)
RNA: CUGCUGCUGCUGCUGUGGGCGCCGCCUCCGAGCCGCGCAGCUCAGCCAGCAGAUCUCCUG
As for B1, the binding result in the series with LARP6 (70-295) [3] and with LARP6 (ITC) [4] was “binds” in each case.

B2: CCNI-5'UTR (ssRNA)
RNA: GGGUCAUCAUGGAACUAAUUCGCUGACCGACCCAGCGGCCGCAGCCGUGCGUCCCGCUCG
Consider B2, for which the binding result in the series with LARP6 (ITC) [5] and with LARP6 (70-295) [6] was “no binding” throughout.

B3: COL1A1-TIS (structured_RNA)
RNA: CCAGCCACAAAGAGUCUACAUGUCUAGGGUCUAGACAUGUUCAGCUUUGUGGACCUCCGG
Turning to B3, the IC50 with LARP6 (70-295) [1] turned out to be 2.71 nM. In the series with LARP6 (ITC) [5], this molecule came in with a Kd of 400 nM.

B4: LRP1-CDS (ssRNA)
RNA: CUGCAUGUGCACAGCCGGCUAUAGCCUCCGGAGUGGCCAGCAGGCCUGCGAGGGCGUAGG
As to B4, the binding result in the series with LARP6 (70-295) [3] and with LARP6 (ITC) [4] was “binds” throughout.

The values are drawn from publication doi:10.1101/2025.01.16.633226.
